Values belong to the binder of their own block, whether it stands above or below them.
Experiments:
[1] = biological target: T1, human FOLR1 recombinant protein (extracellular domain of human folate receptor alpha) (human, UniProt P15328 25-233); test: SPR dual injection on immobilized human FOLR1, 250 nM; competitor (1st VHH, saturating) A4; by the legend the value is of the 2nd VHH
T1 construct: Bought recombinant protein (Sino Biological); also called hFOLR1; FR-alpha
Method: (§1) Competitive binding characteristics of His₆-tagged VHHs were determined via surface plasmon resonance with a Biacore T200 instrument (GE Healthcare). Immobilization of human FOLR1 recombinant protein (Sino Biological) and regeneration were performed as described below for kinetic measurements.
(§2) Table 8: Side-by-side comparison of His₆-tagged VHHs A1, A2, A3, A4, A5 for binding to human FOLR1 to identify competitive binding characteristics. Binding was measured in surface plasmon resonance with immobilized human FOLR1 recombinant protein as the ligand. After saturation of the ligand with VHH 1 an equimolar mixture of VHH 1 and VHH 2 was injected. Percentages express the loss in response level of VHH 2, relative to the response when VHH 2 was injected alone.

[2] = biological target: T1, human FOLR1 recombinant protein …; test: SPR dual injection on immobilized human FOLR1, 250 nM; competitor (1st VHH, saturating) A5; by the legend the value is of the 2nd VHH
Method: as §1, §2

[3] = biological target: T1, human FOLR1 recombinant protein …; test: SPR dual injection on immobilized human FOLR1, 250 nM; competitor (1st VHH, saturating) A3; by the legend the value is of the 2nd VHH
Method: as §1, §2

[4] = biological target: T1, human FOLR1 recombinant protein …; test: SPR (Biacore T200), single cycle kinetics, His6-tagged VHH immobilized on CM5, human FOLR1 as analyte, 1:1 fit
Method: The kinetic parameters of antigen binding for purified VHHs A1, A2 and A3 were determined via surface plasmon resonance with a Biacore T200 instrument (GE Healthcare) using single cycle kinetics mode. While example 4d provides a first and preferred way of assessing the kinetic parameters of antigen binding for VHHs using surface plasmon resonance, this example provides an alternative setup for using surface plasmon resonance to assess the kinetic parameters of antigen binding, inverting the analyte and immobilized ligand. His₆-tagged VHH A1, A2 or A3 was immobilized in 10 mM sodium acetate, pH 5.5 on a CM5 chip (GE Healthcare) via amine coupling chemistry to 160 RU. The human FOLR1 recombinant protein (Sino Biological) was analyzed in a threefold serial dilution in HBS (38.5 nM-0.47 nM) with an analyte flow rate of 30 µl/min. The association phase took 180 s for every concentration and the dissociation phase 900 s. Regeneration was done by a single injection of 50 mM glycine-HCl, pH 2.5, 2 M MgCl2 for 30 s at 30 µl/min, followed by 120 s stabilization. Binding curves were fitted using a ‘1:1 (antigen:analyte)’ binding model in Biacore T200 evaluation software.

[5] = biological target: T1, human FOLR1 recombinant protein …; test: SPR dual injection on immobilized human FOLR1, 250 nM; competitor (1st VHH, saturating) A1; by the legend the value is of the 2nd VHH
Method: as §1, §2

[6] = biological target: T1, human FOLR1 recombinant protein …; test: SPR (Biacore T200), human FOLR1 immobilized on CM5, His6-tagged VHH as analyte, 1:1 fit
Method: The kinetic parameters of antigen binding by purified VHHs were determined via surface plasmon resonance with a Biacore T200 instrument (GE Healthcare). The human FOLR1 recombinant protein (Sino Biological) was immobilized in 10 mM sodium acetate, pH 5.5 on a CM5 chip (GE Healthcare) via amine coupling chemistry to 500 RU. His₆-tagged VHHs were analyzed in a twofold serial dilution in HBS (125 nM-0.488 nM for VHHs A4 and A5; 10 nM-0.039 nM for VHHs A1, A2 and A3) with an analyte flow rate of 30 µl/min. The association phase took 180 s (A4-A5) or 450 s (A1-A3) and the dissociation phase 600 s (A4-A5) or 900 s (A1-A3). Regeneration was done by a single injection of 50 mM glycine-HCl, pH 2.5, 2 M MgCl₂ for 30 s at 30 µl/min, followed by 120 s stabilization. Binding curves were fitted using a ‘1:1 (antigen:analyte)’ binding model in Biacore T200 evaluation software.

[7] = biological target: T2, human FOLR1 expressed on SKOV-3 ovarian carcinoma cells (human, UniProt P15328 25-234); test: saturation binding of 131I-labelled His6-tagged VHH on SKOV-3 cells (0-300 nM); non-specific binding by 100-fold unlabelled VHH
T2 construct: Naturally expressed receptor on SKOV-3 cells; also called human FOLR1pos SKOV-3 cancer cells; human FOLR1-expressing cell line SKOV-3
T2 sequence (P15328 25-234 limits assumed): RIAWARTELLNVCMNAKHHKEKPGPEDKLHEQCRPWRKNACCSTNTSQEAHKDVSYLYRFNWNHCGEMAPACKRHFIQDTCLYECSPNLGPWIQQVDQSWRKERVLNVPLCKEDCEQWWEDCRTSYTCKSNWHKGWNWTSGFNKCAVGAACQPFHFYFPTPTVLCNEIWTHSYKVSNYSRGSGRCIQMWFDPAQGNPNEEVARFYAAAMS
Method: In a first part, their in vitro behaviour was assessed by means of investigating their cellular binding and retention over time. The binding potential of the resulting radioconjugates was assessed to confirm that this was not affected by the introduction of ¹³¹I-SGMIB into the amino acid sequence of the different VHHs. To this, human FOLR1^pos SKOV-3 cancer cells were incubated with serial dilutions with concentrations ranging from 0 to 300 nM of the different ¹³¹I-labelled, His₆ tagged VHHs. A 100-fold excess of the corresponding unlabeled VHH was added in parallel to saturate the human FOLR1 receptors expressed on cancer cells, to assess non-specific binding.

[8] = biological target: T2, human FOLR1 expressed on SKOV-3 ovarian …; test: cellular retention on SKOV-3 cells: 10 nM 131I-VHH 1 h at 4 C, then up to 24 h at 37 C; membrane-bound plus internalized fraction
Method: The in vitro cellular retention of the different His₆- and untagged ¹³¹I-labeled VHHs was assessed on the same cancer cells. In this particular case, human FOLR1^pos SKOV-3 cancer cells were incubated with 10 nM ¹³¹I-labelled VHHs for 1h at 4° C., after which the unbound fraction was collected. A 100-fold excess of the corresponding unlabeled VHH to assess non-specific binding. Next, the cells were incubated with fresh medium up to 24 h at 37° C., after which the dissociated fraction was collected. Afterwards, the cells were washed with 0.05 M glycine pH 2.8 to collect the membrane-bound fraction. Finally, cells were solubilized with 1 M NaOH at room temperature to collect the internalized fraction. The sum of the membrane-bound and internalized fractions corresponds to the total cell-associated fraction.

[9] = biological target: human FOLR1 recombinant protein (extracellular domain of human folate receptor alpha) (human) (UniProt P15328); test: ELISA; coated recombinant protein, HA-tagged VHH in bacterial extract, anti-HA detection; A405 antigen well / blank well
human FOLR1 recombinant protein (extracellular domain of human folate receptor alpha) (human), sequence (P15328 25-233): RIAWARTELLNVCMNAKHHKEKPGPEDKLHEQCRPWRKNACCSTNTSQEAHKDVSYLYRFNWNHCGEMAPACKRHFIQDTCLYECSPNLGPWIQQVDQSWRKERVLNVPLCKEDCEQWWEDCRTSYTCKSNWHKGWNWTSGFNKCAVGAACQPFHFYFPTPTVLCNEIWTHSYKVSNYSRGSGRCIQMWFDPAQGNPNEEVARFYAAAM

[10] = biological target: T3, human folate receptor beta (FOLR2), extracellular domain, recombinant (human, UniProt P14207 17-228, limits assumed); test: ELISA, coated recombinant protein, HA-tagged VHH in bacterial extract
T3 construct: extracellular domain; Bought protein; also called human FOLR2
T3 sequence (P14207 17-228 limits assumed): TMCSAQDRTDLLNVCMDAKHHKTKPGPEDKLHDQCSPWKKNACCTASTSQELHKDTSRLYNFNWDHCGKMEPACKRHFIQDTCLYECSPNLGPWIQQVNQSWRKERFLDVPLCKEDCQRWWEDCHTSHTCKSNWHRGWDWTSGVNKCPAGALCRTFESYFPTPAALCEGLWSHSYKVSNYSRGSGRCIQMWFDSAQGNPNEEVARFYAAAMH
Method: (§3) The day before, 0.1 µg recombinant protein at a concentration of 1 µg/mL in 100 mM NaHCO3, pH 8.2 was coated in a 96-well ELISA plate (Nunc MaxiSorp). Per VHH clone also a blank coated well was foreseen (only buffer). The wells were overcoated with protein-free T20 (PBS) blocking buffer (Pierce). After washing with PBS, pH7.4, 0.05% Tween, VHH-containing bacterial extract was added to every well. Binding of HA-tagged VHHs was detected by using mouse anti-HA.11 epitope tag (clone 16B12, Biolegend) as the primary Ab and goat anti-mouse IgG (whole molecule) alkaline phosphatase conjugate (Sigma-Aldrich) as the secondary Ab, with thorough washing with PBS, pH 7.4, 0.05% Tween in between. Signals were developed using phosphatase substrate (Sigma-Aldrich) in AP blot buffer (100 mM NaCl, 50 mM MgCl2, 100 mM Tris, pH 9.5). The absorbance was determined at 405 nm using an absorbance microplate reader (Molecular Devices). Per clone the ratio was determined between the absorbance in the antigen-coated well versus the well without antigen.

[11] = biological target: T4, human folate receptor gamma (FOLR3), recombinant (human, UniProt P41439 23-245, limits assumed); test: as above
T4 construct: extracellular domain; Bought protein; also called human FOLR3
T4 sequence (P41439 23-245 limits assumed): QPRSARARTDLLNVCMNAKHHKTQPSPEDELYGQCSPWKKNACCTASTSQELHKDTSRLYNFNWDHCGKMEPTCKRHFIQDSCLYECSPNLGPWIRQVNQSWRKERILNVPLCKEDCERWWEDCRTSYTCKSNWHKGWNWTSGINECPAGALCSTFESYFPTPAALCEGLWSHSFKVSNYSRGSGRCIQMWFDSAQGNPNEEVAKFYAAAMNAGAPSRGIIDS
Method: as §3

[12] = biological target: T5, murine FOLR1, extracellular domain, recombinant (murine, UniProt P35846 25-232); test: as above
T5 construct: extracellular domain; Bought protein; also called mouse FOLR1
T5 sequence (P35846 25-232 limits assumed): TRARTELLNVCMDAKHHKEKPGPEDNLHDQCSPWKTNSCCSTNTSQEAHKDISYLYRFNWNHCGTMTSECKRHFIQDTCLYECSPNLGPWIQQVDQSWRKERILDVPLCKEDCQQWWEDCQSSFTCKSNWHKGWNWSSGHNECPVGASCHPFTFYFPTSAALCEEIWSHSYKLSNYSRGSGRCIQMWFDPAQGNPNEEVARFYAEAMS
Method: as §3

[13] = biological target: T3, human folate receptor beta (FOLR2), …; test: ELISA; coated recombinant protein, HA-tagged VHH in bacterial extract, anti-HA detection; A405 antigen well / blank well
Method: as §3

[14] = biological target: T4, human folate receptor gamma (FOLR3), …; test: as above
Method: as §3

[15] = biological target: T5, murine FOLR1, extracellular domain, …; test: as above
Method: as §3

T1 sequence (P15328 25-233): as the sequence (P15328 25-233) above

B2: 131I-labeled His6-tagged VHH A2 (VHH)
VHH: DVQLVESGGGLVQAGGSLRLSCAADEMKFSNYDLAWYRRAPGKQRELAAIITSGGSTNYPDSVKGRFTISRDNAKNTVYLEMNSLKPEDTAVYYCNALRPWPQFSDYWGQGTQVTVSS
modifications: [131I]SGMIB conjugated to lysine side-chain amine groups
- EC50 [7]: 1.1 nM
- cell-associated fraction of initial bound activity after 24 h [8]: ~60%

B3: 131I-labeled His6-tagged VHH A4 (VHH)
VHH: DVQLVESGGGLARAGGSLRLSCAASGRAFSSTYAMGWFRQAPGKEREFVADINWSEGSPMYIDSVKDRFTISRDNARNSLYLQMNSLKSEDTAVYYCAARRFGQGYEYWGQGTQVTVSS
modifications: [131I]SGMIB conjugated to lysine side-chain amine groups
- EC50 [7]: 5.8 nM
- cell-associated fraction of initial bound activity after 24 h [8]: 10%

B4: HA-tagged variant of VHH A1 (VHH)
VHH: QVQLQESGGGLVQPGGSLRLSCAASESIFSRNHMSWYRQAPGKQRELAAIITSDGNTNYPDSVKGRFTISRDNAKNTVYLQMNSLKPEDTAVYYCNTFGRSVAGFYDYWGQGTQVTVSS
notes: Used as VHH-containing bacterial (periplasmic) extract in ELISA; also called A1 HA-tag
- signal-to-background ratio [9]: > 20
- binding result [10]: no binding
- binding result [11]: no binding
- binding result [12]: no binding
- signal-to-background ratio [13]: ~1
- signal-to-background ratio [14]: ~1
- signal-to-background ratio [15]: ~1

B5: 131I-labeled His6-tagged VHH A1 (VHH)
VHH: DVQLVESGGGLVQPGGSLRLSCAASESIFSRNHMSWYRQAPGKQRELAAIITSDGNTNYPDSVKGRFTISRDNAKNTVYLQMNSLKPEDTAVYYCNTFGRSVAGFYDYWGQGTQVTVSS
modifications: [131I]SGMIB conjugated to lysine side-chain amine groups
- EC50 [7]: 0.7 nM
- cell-associated fraction of initial bound activity after 24 h [8]: ~40%

B7: 131I-labeled His6-tagged VHH A3 (VHH)
VHH: DVQLVESGGGLVQAGGSLRLSCGVSGNMFSMNLMGWYRQPPGKERDWVAVITKDGSTNYADSVKGRFTISRDNAKNTVSLQMNSLKPEDTAVYYCNVQDGSGWIRAWGWDWGQGTQVTVSS
modifications: [131I]SGMIB conjugated to lysine side-chain amine groups
- EC50 [7]: 4.5 nM
- cell-associated fraction of initial bound activity after 24 h [8]: 20%

Now from value to binder:

- loss in response level of VHH 2 relative to VHH 2 injected alone [1]: -96%
- loss in response level of VHH 2 relative to VHH 2 injected alone [2]: -86%
- loss in response level of VHH 2 relative to VHH 2 injected alone [3]: -99%
- Kd [4]: 1.5 nM
- koff [4]: 0.00068 s⁻¹
- kon [4]: 440000 M⁻¹ s⁻¹
- loss in response level of VHH 2 relative to VHH 2 injected alone [5]: -96%
- Kd [6]: 0.24 nM
- koff [6]: 0.00033 s⁻¹
- kon [6]: 1.3e+06 M⁻¹ s⁻¹
B1: His6-tagged variant of VHH A2 (VHH)
VHH: DVQLVESGGGLVQAGGSLRLSCAADEMKFSNYDLAWYRRAPGKQRELAAIITSGGSTNYPDSVKGRFTISRDNAKNTVYLEMNSLKPEDTAVYYCNALRPWPQFSDYWGQGTQVTVSS
notes: Purified, unlabelled; also called A2 His6-tag

- signal-to-background ratio [9]: > 20
- binding result [10]: no binding
- binding result [11]: no binding
- binding result [12]: no binding
- signal-to-background ratio [13]: ~1
- signal-to-background ratio [14]: ~1
- signal-to-background ratio [15]: ~1
B6: HA-tagged variant of VHH A3 (VHH)
VHH: QVQLQESGGGLVQAGGSLRLSCGVSGNMFSMNLMGWYRQPPGKERDWVAVITKDGSTNYADSVKGRFTISRDNAKNTVSLQMNSLKPEDTAVYYCNVQDGSGWIRAWGWDWGQGTQVTVSS
notes: Used as VHH-containing bacterial (periplasmic) extract in ELISA; also called A3 HA-tag

- loss in response level of VHH 2 relative to VHH 2 injected alone [1]: -97%
- loss in response level of VHH 2 relative to VHH 2 injected alone [2]: -89%
- Kd [4]: 1.9 nM
- koff [4]: 0.00063 s⁻¹
- kon [4]: 330000 M⁻¹ s⁻¹
- loss in response level of VHH 2 relative to VHH 2 injected alone [5]: -97%
- Kd [6]: 0.92 nM
- koff [6]: 0.0011 s⁻¹
- kon [6]: 1.2e+06 M⁻¹ s⁻¹
B8: His6-tagged variant of VHH A3 (VHH)
VHH: DVQLVESGGGLVQAGGSLRLSCGVSGNMFSMNLMGWYRQPPGKERDWVAVITKDGSTNYADSVKGRFTISRDNAKNTVSLQMNSLKPEDTAVYYCNVQDGSGWIRAWGWDWGQGTQVTVSS
notes: Purified, unlabelled; also called A3 His6-tag

— patent US20230340111A1 (published 2023)
